Source: IntAct's records for PubMed 26416881

B1: MICOS complex subunit MIC19 (Saccharomyces cerevisiae), P43594 (parent)
chain: MGSNTSKVGAGAEKQQVYTPLTQIDFSQSLVSQLDSSKESDYVTKQNAEKFIEKKVSQRLSNLEVETLKKFEDTLNNSLLSDDDKDAVDGISSSSLNNQIESLNKKLTLFDQLELQKLEKYGGAKGKSDKKTDNGSISIKAKLTECLLANKGKPLNCYEEMEEFKKLVMG
partner: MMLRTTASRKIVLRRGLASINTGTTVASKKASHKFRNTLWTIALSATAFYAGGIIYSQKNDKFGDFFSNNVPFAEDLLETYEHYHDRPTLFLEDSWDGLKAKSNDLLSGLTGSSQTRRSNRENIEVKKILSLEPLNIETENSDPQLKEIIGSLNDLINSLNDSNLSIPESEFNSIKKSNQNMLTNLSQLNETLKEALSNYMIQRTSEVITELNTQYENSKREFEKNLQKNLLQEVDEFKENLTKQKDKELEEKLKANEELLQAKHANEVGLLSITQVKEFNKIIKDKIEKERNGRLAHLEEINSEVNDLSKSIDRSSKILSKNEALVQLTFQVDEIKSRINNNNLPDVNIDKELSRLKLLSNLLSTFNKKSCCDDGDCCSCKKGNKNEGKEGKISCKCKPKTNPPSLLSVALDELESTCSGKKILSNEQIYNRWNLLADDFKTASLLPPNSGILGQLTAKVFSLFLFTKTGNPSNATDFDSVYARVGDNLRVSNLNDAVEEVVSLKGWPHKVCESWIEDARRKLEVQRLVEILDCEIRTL

Variants of: B1
Settings: with mic60_yeast MIC60, P36112

Row | Variant | effect of a mutation on the interaction
1 | MGSNTSKVGAGAEKQQVYTPLTQIDFSQSLVSQLDSSKESDYVTKQNAEKFIEKKVSQRLSNLEVETLKKFEDTLNNSLLSDDDKDAVDGISSSSLNNQIESLNKKLTLFDQLELQKLEKYGGAKGKSDKKTDNGSISIKAKLTESLLANKGKPLNCYEEMEEFKKLVMG [C146S] | with no effect
2 | MGSNTSKVGAGAEKQQVYTPLTQIDFSQSLVSQLDSSKESDYVTKQNAEKFIEKKVSQRLSNLEVETLKKFEDTLNNSLLSDDDKDAVDGISSSSLNNQIESLNKKLTLFDQLELQKLEKYGGAKGKSDKKTDNGSISIKAKLTECLLANKGKPLNSYEEMEEFKKLVMG [C157S] | decreasing interaction strength
